Legend:
YbdB [1] = biological target: T1, YbdB (Escherichia coli, UniProt P0A8Y8); test: steady-state inhibition of 4-hydroxybenzoyl-CoA hydrolysis, direct […] nm assay; type: biochemical
T1 sequence (P0A8Y8 1-137): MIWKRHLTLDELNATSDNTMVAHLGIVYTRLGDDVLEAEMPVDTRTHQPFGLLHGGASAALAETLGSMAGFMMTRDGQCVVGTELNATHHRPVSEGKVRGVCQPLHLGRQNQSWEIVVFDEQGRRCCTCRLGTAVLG

YdiI [2] = biological target: T2, YdiI (Escherichia coli, UniProt P77781); test: as above; type: biochemical
T2 sequence (P77781 1-136): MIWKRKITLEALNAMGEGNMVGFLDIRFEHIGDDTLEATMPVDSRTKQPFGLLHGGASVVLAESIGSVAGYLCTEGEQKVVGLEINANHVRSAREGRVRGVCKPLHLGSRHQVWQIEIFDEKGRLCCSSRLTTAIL

YbdB [3] = biological target: T1, YbdB; test: steady-state inhibition of thioester hydrolysis, DTNB coupled assay; type: biochemical
YdiI [4] = biological target: T2, YdiI; test: as above; type: biochemical
YdiI [5] = biological target: T2, YdiI; test: steady-state kinetics, DTNB coupled assay at […] nm; type: biochemical; conditions: pH 7.5, 25 °C; 50 mM K+HEPES, 1 mM DTNB
YbdB [6] = biological target: T3, YbdB (Escherichia coli, UniProt P0A8Y8, M68V); test: steady-state kinetics, DTNB coupled assay at […] nm; type: biochemical; conditions: pH 7.5, 25 °C; 50 mM K+HEPES, 1 mM DTNB
T3 sequence (P0A8Y8 1-137 M68V): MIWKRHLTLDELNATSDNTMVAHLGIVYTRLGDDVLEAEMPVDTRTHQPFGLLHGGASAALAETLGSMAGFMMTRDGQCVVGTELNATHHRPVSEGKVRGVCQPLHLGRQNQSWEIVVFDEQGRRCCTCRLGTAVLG

purified protein = substrate: CC(C)(COP(=O)(O)OP(=O)(O)OC[C@H]1O[C@@H](n2cnc3c(N)ncnc32)[C@H](O)[C@@H]1OP(=O)(O)O)[C@@H](O)C(=O)NCCC(=O)NCCSC(=O)c1ccccc1; test: purified protein; conditions: pH 7.5, 25 °C, 50 mM K+HEPES, 1 mM DTNB

Row | Molecule | Km (purified protein) [µM] | also measured
1 | CC(C)(COP(=O)(O)OP(=O)(O)OC[C@H]1O[C@@H](n2cnc3c(N)ncnc32)[C@H](O)[C@@H]1OP(=O)(O)O)[C@@H](O)C(=O)NCCC(=O)NCCS [compound 4, CoA] | – | Ki (YbdB [1]): 210 ± 10 µM; Ki (YdiI [2]): 16 ± 1 µM
2 | CC(C)(COP(=O)(O)OP(=O)(O)OC[C@H]1O[C@@H](n2cnc3c(N)ncnc32)[C@H](O)[C@@H]1OP(=O)(O)O)[C@@H](O)C(=O)NCCC(=O)NCCSCC(=O)c1ccccc1 [phenacyl-CoA] | – | Ki (YbdB [3]): 65 ± 6 µM; Ki (YdiI [4]): 7.8 ± 0.4 µM
3 | CC(C)(COP(=O)(O)OP(=O)(O)OC[C@H]1O[C@@H](n2cnc3c(N)ncnc32)[C@H](O)[C@@H]1OP(=O)(O)O)[C@@H](O)C(=O)NCCC(=O)NCCSC(=O)c1ccccc1 [compound 3, benzoyl-CoA] | – | Km (YdiI [5]): 25 ± 3 µM; Km (YbdB [6]): 24 ± 2 µM
4 | CCCCCCCCCC(=O)CSCCNC(=O)CCNC(=O)[C@H](O)C(C)(C)COP(=O)(O)OP(=O)(O)OC[C@H]1O[C@@H](n2cnc3c(N)ncnc32)[C@H](O)[C@@H]1OP(=O)(O)O [compound 6, UDO-CoA] | – | Ki (YdiI [4]): 12.2 ± 0.5 µM
5 | CC(C)(COP(=O)(O)OP(=O)(O)OC[C@H]1O[C@@H](n2cnc3c(N)ncnc32)[C@H](O)[C@@H]1OP(=O)(O)O)[C@@H](O)C(=O)NCCC(=O)NCCSCC(=O)c1ccc(O)cc1O [compound 5, 2,4-DHP-CoA] | – | Ki (YbdB [3]): 5.9 ± 6 µM; Ki (YdiI [4]): 2.5 ± 0.2 µM
6 | YdiI (Escherichia coli K-12; S64A) (protein) MIWKRKITLEALNAMGEGNMVGFLDIRFEHIGDDTLEATMPVDSRTKQPFGLLHGGASVVLAEAIGSVAGYLCTEGEQKVVGLEINANHVRSAREGRVRGVCKPLHLGSRHQVWQIEIFDEKGRLCCSSRLTTAIL | 11.9 ± 0.9 | –
7 | YdiI (Escherichia coli K-12; H89A) (protein) MIWKRKITLEALNAMGEGNMVGFLDIRFEHIGDDTLEATMPVDSRTKQPFGLLHGGASVVLAESIGSVAGYLCTEGEQKVVGLEINANAVRSAREGRVRGVCKPLHLGSRHQVWQIEIFDEKGRLCCSSRLTTAIL | 180 ± 10 | –
8 | YdiI (Escherichia coli K-12; H54A) (protein) MIWKRKITLEALNAMGEGNMVGFLDIRFEHIGDDTLEATMPVDSRTKQPFGLLAGGASVVLAESIGSVAGYLCTEGEQKVVGLEINANHVRSAREGRVRGVCKPLHLGSRHQVWQIEIFDEKGRLCCSSRLTTAIL | 100 ± 8 | –
9 | YdiI (Escherichia coli K-12; H54F) (protein) MIWKRKITLEALNAMGEGNMVGFLDIRFEHIGDDTLEATMPVDSRTKQPFGLLFGGASVVLAESIGSVAGYLCTEGEQKVVGLEINANHVRSAREGRVRGVCKPLHLGSRHQVWQIEIFDEKGRLCCSSRLTTAIL | 16.8 ± 0.9 | –
10 | YdiI (Escherichia coli K-12; R91A) (protein) MIWKRKITLEALNAMGEGNMVGFLDIRFEHIGDDTLEATMPVDSRTKQPFGLLHGGASVVLAESIGSVAGYLCTEGEQKVVGLEINANHVASAREGRVRGVCKPLHLGSRHQVWQIEIFDEKGRLCCSSRLTTAIL | 23 ± 3 | –
11 | YdiI (Escherichia coli K-12; S109A) (protein) MIWKRKITLEALNAMGEGNMVGFLDIRFEHIGDDTLEATMPVDSRTKQPFGLLHGGASVVLAESIGSVAGYLCTEGEQKVVGLEINANHVRSAREGRVRGVCKPLHLGARHQVWQIEIFDEKGRLCCSSRLTTAIL | 14.2 ± 0.2 | –
12 | YbdB (Escherichia coli K-12) (protein) MIWKRHLTLDELNATSDNTMVAHLGIVYTRLGDDVLEAEMPVDTRTHQPFGLLHGGASAALAETLGSMAGFMMTRDGQCVVGTELNATHHRPVSEGKVRGVCQPLHLGRQNQSWEIVVFDEQGRRCCTCRLGTAVLG | 12 ± 1 | –
13 | YdiI (Escherichia coli K-12; E63D) (protein) MIWKRKITLEALNAMGEGNMVGFLDIRFEHIGDDTLEATMPVDSRTKQPFGLLHGGASVVLADSIGSVAGYLCTEGEQKVVGLEINANHVRSAREGRVRGVCKPLHLGSRHQVWQIEIFDEKGRLCCSSRLTTAIL | 120 ± 10 | –
14 | YdiI (Escherichia coli K-12; Q48N) (protein) MIWKRKITLEALNAMGEGNMVGFLDIRFEHIGDDTLEATMPVDSRTKNPFGLLHGGASVVLAESIGSVAGYLCTEGEQKVVGLEINANHVRSAREGRVRGVCKPLHLGSRHQVWQIEIFDEKGRLCCSSRLTTAIL | 12.6 ± 0.8 | –
15 | YdiI (Escherichia coli K-12; S67A) (protein) MIWKRKITLEALNAMGEGNMVGFLDIRFEHIGDDTLEATMPVDSRTKQPFGLLHGGASVVLAESIGAVAGYLCTEGEQKVVGLEINANHVRSAREGRVRGVCKPLHLGSRHQVWQIEIFDEKGRLCCSSRLTTAIL | 12.6 ± 0.2 | –

— publication PMC4116151 (Biochemistry, 2014)
